# In US20260217847A1 (NANJING REGENECORE BIOTECH, published 2026):
# Biological target: T1, human recombinant TfR1 protein (amino acids 89-760) (human, UniProt P02786 89-760)
# T1 construct: range 89-760; Expressed in 293F cells from pcDNA3.4; also called humanized TfR1 protein; humanized recombinant TfR1 protein
# Assay: ELISA of crude extracts on coated TfR1, anti-HA HRP; positive clone = OD at least 5-fold over control
# Description: Crude antibody extracts were obtained using osmotic lysis. 100 μL of the obtained crude antibody extract was transferred to the TfR1-coated ELISA plate and incubated at room temperature for 1 hour. Unbound antibodies were washed away with PBST buffer with Tween-20 (PBS purchased from Sangon Biotech, Cat. No. B548117-0500; Tween-20 purchased from Beyotime Biotechnology, Cat. No. ST825). 100 μL of 1:2000-diluted mouse anti-HA horseradish peroxidase (HRP)-conjugated antibody (Thermo Fisher) was added and incubated at room temperature for 1 hour. After washing with PBST buffer to remove unbound antibodies, HRP chromogenic solution was added, followed by a 15-minute reaction at 37° C. With the stop solution added, the absorbance was read at 450 nm using a microplate reader (purchased from TECAN).
# T1 sequence (P02786 89-760 limits assumed): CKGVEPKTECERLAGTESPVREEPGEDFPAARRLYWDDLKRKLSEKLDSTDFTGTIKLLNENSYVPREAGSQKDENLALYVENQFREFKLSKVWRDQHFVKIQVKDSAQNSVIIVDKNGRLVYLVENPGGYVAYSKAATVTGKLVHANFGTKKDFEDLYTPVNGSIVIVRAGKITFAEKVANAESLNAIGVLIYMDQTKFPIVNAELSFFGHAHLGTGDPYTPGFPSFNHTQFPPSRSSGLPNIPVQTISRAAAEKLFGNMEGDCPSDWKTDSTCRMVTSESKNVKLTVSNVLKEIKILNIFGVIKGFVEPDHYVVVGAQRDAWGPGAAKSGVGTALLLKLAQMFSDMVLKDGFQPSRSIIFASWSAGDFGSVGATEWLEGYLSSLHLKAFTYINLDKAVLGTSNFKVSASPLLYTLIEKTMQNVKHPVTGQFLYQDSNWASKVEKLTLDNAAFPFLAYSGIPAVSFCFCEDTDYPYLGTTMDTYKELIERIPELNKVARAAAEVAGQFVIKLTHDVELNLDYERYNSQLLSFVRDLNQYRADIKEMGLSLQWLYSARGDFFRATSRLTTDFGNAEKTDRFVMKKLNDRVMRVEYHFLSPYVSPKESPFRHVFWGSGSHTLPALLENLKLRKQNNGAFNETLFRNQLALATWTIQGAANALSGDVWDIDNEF
row,binding result,Binder
1,binds,"anti-humanized TfR1 protein single-domain antibody 5A3 (VHH clone, crude extract from pMECS) (VHH, not shown: small tags and cut ends) VHH: ESGGGLVQAGGSLTLSCAVSRRAFNTKAMGWFRQAPGKEREFVATISWSGFSTNYADSVKGRFTISRDNAKNTVYLQMNSLKPGDTAVYYCAAGVLDGTNWHEYDYWGQGTQVTVSS"
2,binds,"anti-humanized TfR1 protein single-domain antibody 7G10 (VHH clone, crude extract from pMECS) (VHH, not shown: small tags and cut ends) VHH: ESGGGLVQAGASLKLSCNGSGRTFISYAMGWFRQAPGKQREFVAAERWSGSGIYYADSLKGRFTISRDNAKNTVYLEMNNLKPEDTAVYYCAAREGGLLHVATSYDYWGQGTQVTVSS"
3,binds,"anti-humanized TfR1 protein single-domain antibody 5D3 (VHH clone, crude extract from pMECS) (VHH, not shown: small tags and cut ends) VHH: ESGGGLVEPGGSLRLSCAASGNIFSINNMYWHRQAPGKQRELVGGITRGGITNYVDSVKGRFTISRDNAKNTVYLQMNSLKPEDTAVYFCNAHPWRLGIADYWGQGTQVTVSS"
4,binds,"anti-humanized TfR1 protein single-domain antibody 7G5 (VHH clone, crude extract from pMECS) (VHH, not shown: small tags and cut ends) VHH: ESGGGSVQPGGSLRLSCAVSGSIFSIDTMAWYRQAPGKQRELVAAITKGGSRNYADSVKGRFTISRDNAKNTVYLQMNSLKPEDTAVYYCLADRLFRDRSWGQGTQVTVSS"
5,binds,"anti-humanized TfR1 protein single-domain antibody 4C5 (VHH clone, crude extract from pMECS) (VHH, not shown: small tags and cut ends) VHH: ESGGGLVQPGESLRLSCAASGSIWSIYTMGWYRQAPGLQRDFVGSIAREGGRRYAESVKDRFTISRDNAKNTMYLQMNSLKREDTAVYYCNAITSLGEYWGQGTQVTVSS"

# More lines, now with the values behind:
row,Binder,binding result
1,"anti-humanized TfR1 protein single-domain antibody 8E10 (VHH clone, crude extract from pMECS) (VHH, not shown: small tags and cut ends) VHH: ESGGGLVQAGGSLRLSCAFSGPPFSTYGMGWFRQAPGKEREFVATISGSGFTTTYADSVKGRFTISRDNAKNTVYLQMNSLKPGDTAVYYCAAGVLDGTNWHEYDYWGQGTQVTVSS",binds
2,"anti-humanized TfR1 protein single-domain antibody 8B8 (VHH clone, crude extract from pMECS) (VHH, not shown: small tags and cut ends) VHH: ESGGGLVQPGGSLRLSCVASGRTFSTSGMGWFRQAPGKEREFVATISWSGFTTTYADSVKGRFTISRDNAKNTVYLQMNSLKPGDTAVYYCAAGVLDSTSWHEYDYWGQGTQVTVSS",binds
3,"anti-humanized TfR1 protein single-domain antibody 7D10 (VHH clone, crude extract from pMECS) (VHH, not shown: small tags and cut ends) VHH: ESGGGLVQPGGSLRLSCATSGGTFEMYAMAWFRQAPGKDREGVAGFSWRDSSTTYYSDSVKGRFTISRDNAKNTVYLQMNSLKPEDTAVYYCAARPYVSRWSESSGYDYWGQGTQVTVSS",binds
4,"anti-humanized TfR1 protein single-domain antibody 2H7 (VHH clone, crude extract from pMECS) (VHH, not shown: small tags and cut ends) VHH: ESGGGLVQPGESLRLSCVASGSIWSIYTMGWYRQAPGKQRDFVASITGDSTRTLESVKDRFIISRDNTKNTLYLQMNSLKPEDTAVYYCQAITSLGEYWGQGTQVTVSS",binds
5,"anti-humanized TfR1 protein single-domain antibody 4D11 (VHH clone, crude extract from pMECS) (VHH, not shown: small tags and cut ends) VHH: ESGGGLVQPGESLRLSCVASGSIWSIYTMGWYRQAPGKQRDFVASITRDSTRTLESVKDRFIISRDNAKNTLYLQMNSLKPEDTAVYYCHAITSLGEYWGQGTQVTVSS",binds
6,"anti-humanized TfR1 protein single-domain antibody 5D1 (VHH clone, crude extract from pMECS) (VHH, not shown: small tags and cut ends) VHH: ESGGGLVQPGESLRLSCVASGSIWSIYTMGWYRQAPGKQRDFVASITRDGGRRHAESVKDRFTISRDNAKNTLYLQMNSLKPEDTAVYSCLAITSLGEYWGQGTQVTVSS",binds
7,"anti-humanized TfR1 protein single-domain antibody 7A3 (VHH clone, crude extract from pMECS) (VHH, not shown: small tags and cut ends) VHH: ESGGGLVQPGESLRLSCVASGSIWSIYTMGWYRQAPGKQRDFVASITRDSGRRYAESVKDRFTISRDNAKNTLYLQTNSLKPEDTAVYYCHAITSLGEYWGQGTQVTVSS",binds
